B1: WDR41 (parent)
chain: WTMQAYERNFWDPSPQLDTQQEIK

Variants of: B1
Test: protein stability index of a GFP-peptide fusion (GPS, HEK-293T) (PSI 1-6); higher = more stable
Conditions: c terminus: a fixed tail appended
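Also: lentivirally expressed fusions sorted by FACS into six bins by GFP to DsRed ratio, PSI derived from sequencing read proportions per bin multiplied by bin number.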

First: WTMHAYERNFWDPSPQLDTQQEIK [Q4H]
Second: WTMCAYERNFWDPSPQLDTQQEIK [Q4C]
The protein stability index of the first is lower: 1.89 for the first, 2.27 for the second.

First: WTMYAYERNFWDPSPQLDTQQEIK [Q4Y]
Second: WTMDAYERNFWDPSPQLDTQQEIK [Q4D]
The protein stability index of the first is higher: 2.42 for the first, 2.26 for the second.

First: WTMQAYERNFDDPSPQLDTQQEIK [W11D]
Second: WTMQAYERNFQDPSPQLDTQQEIK [W11Q]
The protein stability index of the first is higher: 4.47 for the first, 3.93 for the second.

Going from WTMQAYERNFHDPSPQLDTQQEIK [W11H] to WTMQAYERNFIDPSPQLDTQQEIK [W11I], the protein stability index falls from 4.04 to 3.91.

Compared with WTMQAYERNFCDPSPQLDTQQEIK [W11C], WTMQAYERNFKDPSPQLDTQQEIK [W11K] is higher in protein stability index: 3.66 for the first, 4.75 for the second.

Compared with WTMQAIERNFWDPSPQLDTQQEIK [Y6I], WTMQAYERNFWDPMPQLDTQQEIK [S14M] is lower in protein stability index: 2.67 for the first, 2.47 for the second.

Compared with WTMQAYERNFWDPNPQLDTQQEIK [S14N], WTMQAYERNFWDPLPQLDTQQEIK [S14L] is lower in protein stability index: 2.74 for the first, 2.7 for the second.

Going from WTMQAYERNFWDPHPQLDTQQEIK [S14H] to WTMQAYERNFWDPWPQLDTQQEIK [S14W], the protein stability index rises from 1.94 to 2.07.

First: WTMQAYERNFWDPPPQLDTQQEIK [S14P]
Second: WTMQAYERNFWHPSPQLDTQQEIK [D12H]
The protein stability index of the first is higher: 3.16 for the first, 2.73 for the second.

Going from WTMQAYERNFWCPSPQLDTQQEIK [D12C] to WTMQAYERNFWGPSPQLDTQQEIK [D12G], the protein stability index falls from 2.25 to 1.96.

First: WTMQAYERNFWVPSPQLDTQQEIK [D12V]
Second: WTMQAYERNFWYPSPQLDTQQEIK [D12Y]
The protein stability index of the first is higher: 3.8 for the first, 1.4 for the second.

Going from WTMQAYERNFWMPSPQLDTQQEIK [D12M] to WTMQAYERNFWRPSPQLDTQQEIK [D12R], the protein stability index rises from 2.93 to 3.92.

First: WWMQAYERNFWDPSPQLDTQQEIK [T2W]
Second: WYMQAYERNFWDPSPQLDTQQEIK [T2Y]
The protein stability index of the first is lower: 2.15 for the first, 2.16 for the second.

Compared with WAMQAYERNFWDPSPQLDTQQEIK [T2A], WGMQAYERNFWDPSPQLDTQQEIK [T2G] is higher in protein stability index: 2.01 for the first, 2.93 for the second.

Going from WTMQRYERNFWDPSPQLDTQQEIK [A5R] to WTMQYYERNFWDPSPQLDTQQEIK [A5Y], the protein stability index falls from 3.25 to 2.18.

Compared with WTMQVYERNFWDPSPQLDTQQEIK [A5V], WTMQNYERNFWDPSPQLDTQQEIK [A5N] is higher in protein stability index: 2.12 for the first, 3.18 for the second.

Compared with WTMQAYERNFWDPSPQLDKQQEIK [T19K], WTMQAYERNFWDPSPQLDEQQEIK [T19E] is lower in protein stability index: 2.69 for the first, 2.37 for the second.

Going from WTMQAYERNFWDPSPQLDPQQEIK [T19P] to WTMQAYERNFWDPSPQLDYQQEIK [T19Y], the protein stability index falls from 2.21 to 1.62.

Compared with WTMQAYERNGWDPSPQLDTQQEIK [F10G], WTMQAYERNAWDPSPQLDTQQEIK [F10A] is lower in protein stability index: 3.25 for the first, 3.23 for the second.

First: WTMQAYERNDWDPSPQLDTQQEIK [F10D]
Second: WTMQAYERNSWDPSPQLDTQQEIK [F10S]
The protein stability index of the first is higher: 4.7 for the first, 3.95 for the second.

Going from WTMQAYERNHWDPSPQLDTQQEIK [F10H] to WTMQAYERFFWDPSPQLDTQQEIK [N9F], the protein stability index falls from 4.14 to 2.12.

First: WTMQAYERAFWDPSPQLDTQQEIK [N9A]
Second: WTMQAYERPFWDPSPQLDTQQEIK [N9P]
The protein stability index of the first is lower: 2.08 for the first, 2.71 for the second.

First: WTMQAYERCFWDPSPQLDTQQEIK [N9C]
Second: WTMQAYERGFWDPSPQLDTQQEIK [N9G]
The protein stability index of the first is lower: 1.94 for the first, 2.64 for the second.

Going from WTMQAYERTFWDPSPQLDTQQEIK [N9T] to WTMQAYERSFWDPSPQLDTQQEIK [N9S], the protein stability index falls from 2.52 to 2.46.

WTMQAYERNFWDPSPQLDTQQPIK [E22P] and WTMQAYERNFWDPSPQLDTQQGIK [E22G] are the same in protein stability index: 2.34 for the first, 2.34 for the second.

First: WTMQAYERNFWDPSPQLDTQQMIK [E22M]
Second: WTMQAYERNFWDPSPQLDTQQWIK [E22W]
The protein stability index of the first is higher: 2.03 for the first, 1.88 for the second.

First: WTMQAYERNFWDPSPQLDTQQCIK [E22C]
Second: WTMQAYERNFWDPSPQLSTQQEIK [D18S]
The protein stability index of the first is higher: 2.55 for the first, 2.23 for the second.

Compared with WTMQAYERNFWDPSPQLCTQQEIK [D18C], WTMQAYERNFWDPSPQLITQQEIK [D18I] is higher in protein stability index: 1.95 for the first, 2.28 for the second.

Compared with WTMQAYERNFWDPSPQLVTQQEIK [D18V], WTMQAYERNFWDPSPQLGTQQEIK [D18G] is lower in protein stability index: 2.63 for the first, 2.56 for the second.

First: WTMQAYERNFWDPSPQLHTQQEIK [D18H]
Second: WTKQAYERNFWDPSPQLDTQQEIK [M3K]
The protein stability index of the first is lower: 2.2 for the first, 2.96 for the second.

Compared with WTMQAYERNFWDPSPQLDTQKEIK [Q21K], WTMQAYERNFWDPSPQLDTQCEIK [Q21C] is lower in protein stability index: 2.28 for the first, 2.12 for the second.

Compared with WTMQAYERNFWDPSPQLDTQVEIK [Q21V], WTMQAYERNFWDPSPQLDTQWEIK [Q21W] is lower in protein stability index: 2.51 for the first, 1.6 for the second.

First: WTMQAYERNFWDPSPQLDTQIEIK [Q21I]
Second: WTMQAYERNFWDPSPQLDTQFEIK [Q21F]
The protein stability index of the first is lower: 1.73 for the first, 1.93 for the second.

Compared with WTMQAYERNFWDPSPQLDTQQEIP [K24P], WTMQAYVRNFWDPSPQLDTQQEIK [E7V] is higher in protein stability index: 2.09 for the first, 2.88 for the second.

Going from WTMQAYGRNFWDPSPQLDTQQEIK [E7G] to WTMQAYIRNFWDPSPQLDTQQEIK [E7I], the protein stability index falls from 2.7 to 1.92.

First: WTMQAYERNFWDPSPQVDTQQEIK [L17V]
Second: WTMQAYERNFWDPSPQDDTQQEIK [L17D]
The protein stability index of the first is lower: 2.75 for the first, 3.56 for the second.

First: WTMQAYERNFWDPSPQGDTQQEIK [L17G]
Second: WTMQAYERNFWDPSPQRDTQQEIK [L17R]
The protein stability index of the first is lower: 3.22 for the first, 3.23 for the second.

Compared with WTMQAYERNFWDPSPQWDTQQEIK [L17W], WTMQAYERNFWDPSPQHDTQQEIK [L17H] is higher in protein stability index: 2.37 for the first, 3.32 for the second.

First: WTMQAYERNFWDPSPQEDTQQEIK [L17E]
Second: WTMQAYERNFWDPSPQKDTQQEIK [L17K]
The protein stability index of the first is higher: 2.9 for the first, 2.84 for the second.

Going from WTMQAYERNFWDPSPQTDTQQEIK [L17T] to ATMQAYERNFWDPSPQLDTQQEIK [W1A], the protein stability index rises from 2.31 to 3.77.

Compared with HTMQAYERNFWDPSPQLDTQQEIK [W1H], PTMQAYERNFWDPSPQLDTQQEIK [W1P] is higher in protein stability index: 3.13 for the first, 4.6 for the second.

First: YTMQAYERNFWDPSPQLDTQQEIK [W1Y]
Second: VTMQAYERNFWDPSPQLDTQQEIK [W1V]
The protein stability index of the first is higher: 3.58 for the first, 3.47 for the second.

Compared with DTMQAYERNFWDPSPQLDTQQEIK [W1D], KTMQAYERNFWDPSPQLDTQQEIK [W1K] is lower in protein stability index: 5.58 for the first, 4.15 for the second.

Going from ITMQAYERNFWDPSPQLDTQQEIK [W1I] to CTMQAYERNFWDPSPQLDTQQEIK [W1C], the protein stability index falls from 3.35 to 2.3.

Going from WTMQAYERNFWDPSPSLDTQQEIK [Q16S] to WTMQAYERNFWDPSPYLDTQQEIK [Q16Y], the protein stability index falls from 1.82 to 1.68.

Compared with WTMQAYERNFWDPSPDLDTQQEIK [Q16D], WTMQAYERNFWDPSPGLDTQQEIK [Q16G] is higher in protein stability index: 2.65 for the first, 2.83 for the second.

First: WTMQAYERNFWDPSPHLDTQQEIK [Q16H]
Second: WTMQAYERNFWDPSPQLDTIQEIK [Q20I]
The protein stability index of the first is lower: 2.01 for the first, 2.07 for the second.
